From the supplement of paper PMC7877785
± gives the uncertainty stated by the source.

Experiment: self-splicing fitness, log relative to wild type (ln ratio); higher = more splicing; Tetrahymena group I intron in knt gene, E. coli kanamycin selection, DiMSum; sequences stand for … in CUCUCU…GGAGGGAAAAGUUAUCAGGCAUGCACCUGGUAGCUAGUCUUUAAACCAAUAGAUUGCAUCGGUUUAAAAGGCAAGACCGUCAAAUUGCGGGAAAGGGGUCAACAGCCGUUCAGUACCAAGUCUCAGGGGAAACUUUGAGAUGGCCUUGCAAAGGGUAUGGUAAUAAGCUGACGGACAUGGUCCUAACCACGCAGCCAAGUCCUAAGUCAACAGAUCUUCUGUUGAUAUGGAUGCAGUUCACAGACUAAAUGUCGGUCGGGGAAGAUGUAUUCUUCUCAUAAGAUAUAGUCGGACCUCUCCUUAAUGGGAGCUAGCGGAUGAAGUGAUGCAACACUGGAGCCGCUGGGAACUAAUUUGUAUGCGAAAGUAUAUUGAUUAGUUUUGGAGUACUCGUGGUCG
How it was run: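 Library with all eight P1ex-region intron nucleotides randomised, intron inside the knt kanamycin-resistance gene on pET-22b(+), in E. coli BL21(DE3). Cells grew overnight at 37°C or 30°C on LB agar with or without 25 μg/mL kanamycin (plus 100 μg/mL carbenicillin, 50 μM IPTG, 0.2% rhamnose), in six replicate transformations. Pooled colonies were amplicon-sequenced on Illumina HiSeq 2500. DiMSum fitness is the error-weighted combination of wild-type-normalised replicate fold changes, kanamycin versus none.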

Row | Sequence | self-splicing fitness (ln) (30 °C) | self-splicing fitness (ln) (37 °C)
1 | UCAUAGCAAUAUUACGAGGA | -3.42 ± 0.34 | -0.473 ± 0.21
2 | AUUGAGCAAUAUUACGCAGC | -1.85 ± 0.29 | -2.7 ± 0.38
3 | AGUUAGCAAUAUUACGAGCA | -0.518 ± 0.11 | -0.169 ± 0.12
4 | AUUAAGCAAUAUUACGGGCG | -0.789 ± 0.085 | -0.228 ± 0.11
5 | CACCAGCAAUAUUACGGGGC | -4.45 ± 0.22 | -1.29 ± 0.14
6 | CUUAAGCAAUAUUACGUGAC | -1.91 ± 0.13 | -2.06 ± 0.14
7 | AUGAAGCAAUAUUACGUCGC | -2.24 ± 0.14 | -1.28 ± 0.18
8 | AUAUAGCAAUAUUACGAUAA | -1.38 ± 0.31 | -0.229 ± 0.39
9 | GUGCAGCAAUAUUACGCGGG | -2.81 ± 0.36 | -1.03 ± 0.2
10 | GGCUAGCAAUAUUACGGGUG | -0.804 ± 0.094 | -0.739 ± 0.1
11 | CAUAAGCAAUAUUACGAAGA | -2.84 ± 0.37 | -3.15 ± 0.33
12 | CACUAGCAAUAUUACGCAGU | -4.15 ± 0.42 | -2.78 ± 0.33
13 | GGACAGCAAUAUUACGUCUA | -0.35 ± 0.081 | -0.114 ± 0.097
14 | AGUCAGCAAUAUUACGGAUU | -2.25 ± 0.14 | -1.42 ± 0.11
15 | UCAUAGCAAUAUUACGACUC | -2.18 ± 0.37 | -1.46 ± 0.37
16 | UCUCAGCAAUAUUACGAACG | -1.88 ± 0.12 | -0.666 ± 0.14
17 | CCUCAGCAAUAUUACGAGCA | -3.04 ± 0.26 | -2.87 ± 0.25
18 | UCAGAGCAAUAUUACGAACG | -3.12 ± 0.32 | -1.85 ± 0.3
19 | GAAGAGCAAUAUUACGGCGG | -3.45 ± 0.2 | -2.19 ± 0.27
20 | CCCGAGCAAUAUUACGGGAU | -3.31 ± 0.23 | -2.08 ± 0.21
21 | GUGGAGCAAUAUUACGGCGG | -3.32 ± 0.29 | -1.54 ± 0.27
22 | UGAAAGCAAUAUUACGAUGU | -3.04 ± 0.2 | -1.81 ± 0.21
23 | CUGGAGCAAUAUUACGUGCU | -2.27 ± 0.23 | -2.91 ± 0.34
24 | GAGCAGCAAUAUUACGUAAC | -1.36 ± 0.11 | -1.13 ± 0.18
25 | GCGGAGCAAUAUUACGUUGG | – | -3.01 ± 0.4
26 | AUUAAGCAAUAUUACGUUCA | -0.728 ± 0.092 | -0.399 ± 0.12

Row | Sequence | self-splicing fitness (ln) (30 °C) | self-splicing fitness (ln) (37 °C)
27 | GUGGAGCAAUAUUACGUAUU | -3.11 ± 0.17 | -1.68 ± 0.21
28 | CCAUAGCAAUAUUACGCUUU | -4.72 ± 0.28 | -3.1 ± 0.2
29 | GGUCAGCAAUAUUACGGCAA | 0.415 ± 0.065 | 0.217 ± 0.083
30 | CAGCAGCAAUAUUACGCGUA | -1.87 ± 0.083 | -1.05 ± 0.075
31 | GAAUAGCAAUAUUACGCUUA | -1.5 ± 0.17 | -0.146 ± 0.17
32 | GGAGAGCAAUAUUACGGGGC | -3.01 ± 0.27 | -2.71 ± 0.44
33 | UAUCAGCAAUAUUACGAUCA | -0.115 ± 0.11 | 0.19 ± 0.14
34 | GAACAGCAAUAUUACGGCUU | -0.492 ± 0.064 | 0.239 ± 0.087
35 | GUUAAGCAAUAUUACGCUUU | -4.08 ± 0.43 | -0.79 ± 0.22
36 | AGACAGCAAUAUUACGUAUG | -3.13 ± 0.15 | -0.801 ± 0.12
37 | GAUGAGCAAUAUUACGGCUG | -1.42 ± 0.19 | -1.36 ± 0.16
38 | GAGCAGCAAUAUUACGCGGG | -2.52 ± 0.21 | -1.96 ± 0.23
39 | UACUAGCAAUAUUACGCAAU | -3.82 ± 0.23 | -1.63 ± 0.16
40 | GGCCAGCAAUAUUACGGUUG | -0.224 ± 0.062 | -0.166 ± 0.075
41 | AUGCAGCAAUAUUACGAAUC | -3.82 ± 0.24 | -2.87 ± 0.2
42 | CGAAAGCAAUAUUACGCUGU | -3.2 ± 0.25 | -2.75 ± 0.33
43 | CGCGAGCAAUAUUACGUAGG | -2.88 ± 0.14 | -0.445 ± 0.12
44 | CAAGAGCAAUAUUACGCGAC | -3.73 ± 0.23 | -1.93 ± 0.13
45 | CAACAGCAAUAUUACGAACA | -2.43 ± 0.099 | -1.17 ± 0.075
46 | UGUAAGCAAUAUUACGGCUC | -1.94 ± 0.19 | -1.32 ± 0.29
47 | GAACAGCAAUAUUACGAGGU | -3.08 ± 0.14 | -1.71 ± 0.12
48 | GGAGAGCAAUAUUACGCAAG | – | -3.71 ± 0.46
49 | UGCAAGCAAUAUUACGCCAA | -1.67 ± 0.34 | -0.657 ± 0.19
50 | CUUGAGCAAUAUUACGAGGC | -2.91 ± 0.26 | -2.89 ± 0.27
51 | GGAUAGCAAUAUUACGUAGC | -3.55 ± 0.2 | -1.06 ± 0.16
52 | GAUAAGCAAUAUUACGUACC | -0.984 ± 0.2 | -0.641 ± 0.21

Row | Sequence | self-splicing fitness (ln) (30 °C) | self-splicing fitness (ln) (37 °C)
53 | AGGUAGCAAUAUUACGGGAU | -2.755 ± 0.02 | -1.49 ± 0.034
54 | UUGGAGCAAUAUUACGGUUC | -2.38 ± 0.2 | -2.86 ± 0.3
55 | AGGAAGCAAUAUUACGCUCC | -1.87 ± 0.31 | –
56 | CGGCAGCAAUAUUACGGAAG | -1.07 ± 0.09 | -0.442 ± 0.12
57 | GGCGAGCAAUAUUACGGUCC | – | -2.99 ± 0.43
58 | CGCUAGCAAUAUUACGCAUU | -3.69 ± 0.28 | -2.04 ± 0.27
59 | CCGGAGCAAUAUUACGAAUA | – | -2.16 ± 0.4
60 | UGGAAGCAAUAUUACGGUCG | -0.0238 ± 0.081 | 0.332 ± 0.11
61 | UACUAGCAAUAUUACGGCAU | -1.36 ± 0.095 | -1.28 ± 0.099
62 | ACCGAGCAAUAUUACGAUUC | -3.37 ± 0.25 | -3.31 ± 0.31
63 | CGCCAGCAAUAUUACGGUGC | -3.5 ± 0.17 | -3.07 ± 0.3
64 | GAGAAGCAAUAUUACGCUCA | -1.29 ± 0.16 | -1.13 ± 0.15
65 | UGCAAGCAAUAUUACGGCAG | -0.827 ± 0.078 | -0.0588 ± 0.12
66 | AACAAGCAAUAUUACGUGUU | -4.01 ± 0.19 | -2.05 ± 0.12
67 | CAUCAGCAAUAUUACGCGCC | -2.74 ± 0.27 | -1.05 ± 0.27
68 | GGUCAGCAAUAUUACGUCUC | 0.385 ± 0.17 | -0.113 ± 0.15
69 | AGAAAGCAAUAUUACGGCCC | 0.946 ± 0.29 | -0.169 ± 0.27
70 | CAACAGCAAUAUUACGUGAA | -1.36 ± 0.056 | -1.62 ± 0.1
71 | GUAAAGCAAUAUUACGGUGG | -2.81 ± 0.11 | -1.48 ± 0.11
72 | CCGCAGCAAUAUUACGACUA | -3.8 ± 0.34 | -3.46 ± 0.29
73 | AAACAGCAAUAUUACGCUCU | -0.653 ± 0.085 | 0.413 ± 0.086
74 | UAGAAGCAAUAUUACGUAGA | -2.4 ± 0.095 | -1.79 ± 0.11
75 | UAGGAGCAAUAUUACGUAUA | -2.34 ± 0.21 | -0.936 ± 0.17
76 | CCCUAGCAAUAUUACGGCGC | -3.55 ± 0.21 | -3.28 ± 0.24
